This note sets out measurements from patent US20060257410A1 (CHEMOCENTRYX, published 2006).

The target of test [1] is T1, mouse homolog of CCX CKR2 (mouse, UniProt P56485 1-362).
T1 construct: whole, on cells; also called mouse CCX-CKR2
Kind of test: IHC on fixed paraffin embedded tissue sections.

Test [2] addresses T2, CXCR2 (UniProt P25025 1-360, limits assumed).
T2 construct: whole, on cells
T2 sequence (looked up): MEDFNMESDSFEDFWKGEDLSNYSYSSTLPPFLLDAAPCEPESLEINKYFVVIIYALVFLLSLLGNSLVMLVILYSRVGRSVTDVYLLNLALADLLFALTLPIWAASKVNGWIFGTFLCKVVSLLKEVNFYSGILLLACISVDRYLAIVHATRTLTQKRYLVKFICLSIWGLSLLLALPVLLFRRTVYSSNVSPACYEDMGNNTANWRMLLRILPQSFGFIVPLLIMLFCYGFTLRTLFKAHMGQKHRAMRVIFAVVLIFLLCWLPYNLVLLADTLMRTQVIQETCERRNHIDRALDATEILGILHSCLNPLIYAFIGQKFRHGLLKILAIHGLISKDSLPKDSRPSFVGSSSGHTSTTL
Kind of test: flow cytometry on transfected HEK 293 cells.

T1 sequence (P56485 whole entry): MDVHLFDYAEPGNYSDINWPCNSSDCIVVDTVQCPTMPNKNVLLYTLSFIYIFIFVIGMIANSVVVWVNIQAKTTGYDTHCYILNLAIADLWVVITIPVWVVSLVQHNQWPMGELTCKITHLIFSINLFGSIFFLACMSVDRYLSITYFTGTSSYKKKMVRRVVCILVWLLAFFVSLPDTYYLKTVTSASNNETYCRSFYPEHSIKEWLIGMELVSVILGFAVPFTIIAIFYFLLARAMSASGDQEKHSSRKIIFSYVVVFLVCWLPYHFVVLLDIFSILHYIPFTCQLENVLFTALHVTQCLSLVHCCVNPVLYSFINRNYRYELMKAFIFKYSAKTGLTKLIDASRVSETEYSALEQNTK

B1: monoclonal antibody 6E10 (antibody, V domains shown)
VH: EVKLDETGGGLVQPGRPMKLSCVASGFTFSDYWMNWVRQSPEKGLEWVGQIRNKPYNYETYYSDSVKGRFTISRDDSKSSVYLQMNNLRTEDTGIYYCTSLRYWGQGTLVTVSA
VL: DIVMTQSPSSLTVTAGEKVTMSCKSSHSLLNSGIQKNFLTWYQQKPGQPPKVLIYWAFTRESGVPERFTGSGSGTDFTLTISSVQAEDLAVYYCQSDYTYPFTFGSGTKLEIKR
notes: Mouse hybridoma monoclonal antibody raised by gene gun inoculation with CCX-CKR2 cDNA
Take B1: the results for the binding result in test [1] and in test [2] were “binds” and “no binding”, respectively.

B2: monoclonal antibody 11G8 (antibody, V domains shown)
VH: EVKLVESGGDLVQPGGSLKLSCATSGFTFSDYYMFWVRQTPEKRLEWVAYITNGGDRSYYSDTVTGRFIISRDNAKNTLYLQMSRLKSEDTAMYYCARQGNWAAWFVYWGQGTLVTVSA
VL: DVLMTQTPLSLPVSLGDQASISCRSSHYIVHSDGNTYLEWYLQKPGQSPKLLIYKVSNRFSGVPDRFSGSGSGTDFTLKISRVEAEDLGIYYCFQGSHVPLTFGAGTKLELKR
notes: as for B1
On to B2, for which the binding result is “binds” in test [1] and “no binding” in test [2].
